Test results: US10704064B2, “Recombinant yeast producing 3-hydroxypropionic acid and method for producing 3-hydroxypropionic acid using the same” (SK Innovation Co., Ltd., priority 2014, dated 2020)

B1: ADHEpm: adhE type AADH of Piromyces sp. E2, GenBank AY282576.1 (protein)
chain: MSGLQMFQNLSLYGSLAEIDTSEKLNEAMDKLTAAQEQFREYNQEQVDKIFKAVALAASQNRVAFAKYAHEETQKGVFEDKVIKNEFAADYIYHKYCNDKTAGIIEYDEANGLMEIAEPVGPVVGIAPVTNPTSTIIYKSLIALKTRNCIIFSPHPGAHKASVFVVKVLHQAAVKAGAPENCIQIIFPKMDLTTELLHHQKTRFIWATGGPGLVHASYTSGKPALGGGPGNAPALIDETCDMNEAVGSIVVSKTFDCGMICATENAVVVVESVYENFVATMKKRGAYFMTPEETKKASNLLFGEGMRLNAKAVGQTAKTLAEMAGFEVPENTVVLCGEASEVKFEEPMAHEKLTTILGIYKAKDFDDGVRLCKELVTFGGKGHTAVLYTNQNNKDRIEKYQNEVPAFHILVDMPSSLGCIGDMYNFRLAPALTITCGTMGGGSSSDNIGPKHLLNIKRVGMRRENMLWFKIPKSVYFKRAILSEALSDLRDTHKRAIIITDRTMTMLGQTDKIIKACEGHGMVCTVYDKVVPDPTIKCIMEGVNEMNVFKPDLAIALGGGSAMDAAKMMRLFYEYPDQDLQDIATRFVDIRKRVVGCPKLGRLIKTLVCIPTTSGTGAEVTPFAVVTSEEGRKYPLVDYELTPDMAIVDPEFAVGMPKRLTSWTGIDALTHAIESYVSIMATDFTRPYSLRAVGLIFESLSLAYNNGKDIEAREKMHNASAIAGMAFANAFLGCCHSVAHQLGSVYHIPHGLANALMLSHIIKYNATDSPVKMGTFPQYKYPQAMRHYAEIAELLLPPTQVVKMTDVDKVQYLIDRVEQLKADVGIPKSIKETGMVTEEDFFNKVDQVAIMAFDDQCTGANPRYPLVSELKQLMIDAWNGVVPKL
modifications: ADHEpm
B2: AADHta: eutE type AADH of Tolumonas auensis DSM 9187, GenBank ACQ93307.1 (protein)
chain: MNNTELESLIRTILTEQLTPSATDTPACTASSVALFDDVDSAICAAHAAFLRYQEAPLKTRSAIIAAIRAEIAPCLSELAERAAAETGMGNTADKILKNKAALENTPGIEDLKTTALTGDEGMVLFEYSPFGVVGAVAPSTNPTETIINNSISMLAAGNAIYFSPHPGAKNISLWLIQKMEEIAFKVCGIHNLIVTVKEPTFEATQQMMAHDKIALLAITGGPGIVNMGLKSGKKVIGAGAGNPPCLVDETAEIVKAAQDIVAGASFDYNLPCIAEKSVIAVDCIADQLIQQMREFGAMQITDPQQIAQLREVCIQKGAANKSLVGKSPATILAAAGIPCPAKEPRLIILEVPANDPFVVTEQLMPVLPIVRVDNFEQGLQLALKVEDGLHHTAMMHSQNVSRLNKAAHLMQTSIFVKNGPSYAGIGVGAEGFTTFTIATPTGEGTTSARTFGRLRRCVLTNGFSIR
modifications: AADHta
B3: AADHbs: eutE type AADH of Blautia sp. CAG: 237, GenBank CDB76812.1 (protein)
chain: MDEIMIKNIVREVLMKTNLDISCKSDQGVFEDVNDAIDAAYIAQRDWYMNYKVEDRRRIIEAIRVVARENAPMFAKMIHEETGMGRYEDKITKNLAVIDKTPGVECLVTDAISGDSGLMIEEQAPFGVIGAITPSTNPTETIINNTISMIGGGNAVVFNVHPGAKKVCAVCLQILHKTIVENGGPANLITMQRKPDMEAVNKLTASPKIRLMVGTGGMGMVNALLKSGKKTIGAGAGNPPVVVDDTADLDKAASEIYRGASFDNNLLCLAEKETFVMDNVADELIRKMCACGAHLITPQETEQLLKVIFLEKDGKYSVNKKWVGKDASLILESIGIKDADTRLVLCEVPHDHPFVLVEQLMPIMPIVRCKTFEDCVKYAVVAENGNRHTASMFSKNVDHMTRFAKEIETTIFTKNAATLVGVGIGGEGHTTMTIAGPTGEGLTCARSFTRRRRCMLADGGLRVI
modifications: AADHbs
B4: AADHtl: eutE type AADH of Thauera linaloolentis DSM 12138, GenBank ENO90114.1 (protein)
chain: MVDIDLKNVEQIVRTVLASMQTQPQAVQPAAGRRAAPGVFTELDDAVAEASTAQRAIRNLATRVKVVEAIRKAAEAHARELAELAVAETGMGRVEDKFAKNVSQARHTPGVECLAPTALTGDRGLTLIENAAWGVIASVTPSTNPAATIINNAISMISAGNTVVFAPHPAAKKVSQRTVSLLNEASVAAGGPDNVVTTVLNPDIATAQRLFSYPGIHLLTVTGGEAVVEAARKHTDKRLIAAGAGNPPVVVDETADLARAARDIVWGASFDNNIICVDEKEIIVVDRVCDALKTEMARHKAVELTPDQGKRLVDVLLNYVGADGRGTVSRDWVGRDAAKIAAAIGLEVPADTRLLYIETPADHPFAVTELMMPVIPVVRAPDVDAAIDLAVKLEGNCRHTAAMHSRNIDALDRMANAINTSIFVKNGPCLAGLGFGGEGWTTMTISTPTGEGVTSARTFVRLRRCVLVDHFRIV
modifications: AADHtl
B5: AADHhs: eutE type AADH of Halanaerobium saccharolyticum DSM 6643, GenBank CCU77919.1 (protein)
chain: MKIKENELDKIVNQVISSLNNKQNSNDFNTKINYGIFSTMDEAIAEAVKAQACLQLNYSTEAREKIIKSIRKNVSKHVEKISEMAVEETDMGRIEDKIIKNNLAINKTPGTEDLRTEAFSGKKGLTIVEEAPFGVICSIAPVTNPTETIISNAISMIASCNGVVFNSHPGAKKVSKYIIEVLNKVIMEAGGPENLLTAVNEPTLQTVESCMRDDRIAMIVATGGPGVVNAALSSGKKAIGAGAGNPPVLVDDTVDLKRVAKDIINGASFDNNLPCTSEKAIVALESIADSLLNEMTNQNAQLVHDIKALERVILNDDGSINKALVGKDAAFILNKAGLKAKSEDLRLVIVDVDLRHPFVQKEQLMPVIPLVRAKNFNEAMEMGVDIEEGNRHTAIIHSKNVDNLTKFAKKIETTIYVKNAPSYAGIGAGGEGYATFTIAGPTGEGLTSARSFTRKRRCVLVDGFSII
modifications: AADHhs
B6: EUTEec: eutE type AADH of Escherichia coli HS, GenBank YP_001459232.1 (protein)
chain: MNQQDIEQVVKAVLLKMQSSDTPPAAVHEMGVFASLDDAVAAAKVAQQGLKSVAMRQLAIAAIREAGEKHARDLAELAVSETGMGRVEDKFAKNVAQARGTPGVECLSPQVLTGDNGLTLIENAPWGVVASVTPSTNPAATLINNAISLIAAGNSVIFAPHPAAKKVSQRAITLLNQAIVAAGGPENLLVTVANPDIETAQRLFKFPGIGLLVVTGGEAVVEAARKHTNKRLIAAGAGNPPVVVDETADLARAAQSIVKGASFDNNIICADEKVLIVVDSVADELMRLMEGQHAVKLTAEQAQQLQPVLLKNIDERGKGTVSRDWVGRDAAKIAAAIGLNVPQETRLLFVETTAEHPFAVTELMMPVLPVVRVANVADAIALAVKLEGGCHHTAAMHSRNIENMNQMANAIDTSIFVKNGPCIAGLGLGGEGWTTMTITTPTGEGVTSARTFVRLRRCVLVDAFRIV
modifications: EUTEec

How the values were obtained:
[1] = tested on: AADH; assay: AADH in vitro enzyme activity assay from yeast cell lysates; assay type: biochemical; conditions: for AADH activity: in vitro, expressed in yeast
Protocol: AADH activity was measured as described by Kozak et al. (2014, Metab. Eng. 21:46-59) by monitoring the reduction of NAD^+ at 340 nm at 30° C. The yeast cells for the cell lysates were collected, washed with water, and then resuspended into lysis buffer containing 100 mM Tris-HCl buffer (pH 7.5) and 1×EDTA free protease inhibitor cocktail (Roche). The cells were lysed with glass beads in a Precellys 24 homogenizer at 5500 rpm for 3×40 seconds and kept on ice between rounds. Lysates were centrifuged at 16 000 g for 20 min at 4° C. and supernatants were collected. The total protein concentration was determined using the Bradford method.
The enzyme assay reaction mixture contained 0.1 mM Coenzyme A, 50 mM CHES buffer (pH 9.5), 0.8 mM NAD^+, 0.2 mM DTT and 10 μL of cell extract in a total reaction volume of 200 μL. The reaction was started by adding 10 mM of freshly prepared acetaldehyde solution and reduction of NAD^+ was followed with a Thermo Konelab 20XT analyser.
Five AADH genes were originally chosen (i.e. ADHEpm, ADHEec, EUTec, EUTdz and LIN1129li) and transformed into the CEN.PK lab strain. These AADHs were expressed from a multicopy plasmid where they were under control of the TEF1 promoter.
Twenty additional novel AADH genes were chosen from the genome mining analyses to be evaluated for expression and enzyme activity in yeast.

[2] = tested on: S. cerevisiae VSK-128 ACS2 deletion strain; assay: AADH in vivo growth assay, ACS2 deletion strain on glucose-based agar plates; assay type: cell-based
Source text: All copies of the ACS2 gene were deleted from the industrial S. cerevisiae VSK-128 strain in order to generate a strain with a defective PDH-bypass that was incapable of growth on glucose-based medium. Expression vectors carrying the 25 different AADH variants were then transformed into this ACS2 deletion strain to evaluate their ability to recover the growth of this strain on glucose.
There was a good correlation between the in vitro AADH enzyme activity assays and the in vivo growth recovery analyses.

Row | Molecule | AADH activity [1] | recovery of the growth deficiency of the ACS2-deletion strain [2] | AADH activity in yeast compared to the adhE-type AADHs ([1]; CEN.PK lab strain, multicopy plasmid, TEF1 promoter)
1 | B1 | showed AADH activity | – | –
2 | B2 | – | capable of recovering the growth deficiency | –
3 | B3 | – | capable of recovering the growth deficiency | –
4 | B4 | – | capable of recovering the growth deficiency | –
5 | B5 | – | capable of recovering the growth deficiency | –
6 | B6 | showed AADH activity | capable of recovering the growth deficiency | much higher AADH activity
